Measurements reported in the NTF2 design screens of Basanta et al. (2020).

Experiment: protease stability score; higher = more stable; yeast display proteolysis, trypsin and chymotrypsin;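 note: relative to predicted unfolded state with 0 unfolded-like and 1 meaning tenfold more protease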
Sequence “NEDEDWLRKVLHLLLHAAETGDEEILLHLLDPNARFIQGDKFKVGMDILETWIRKIKNLRIHDFELKDMRVYNGRIEVDGHLDRIINGQRERTDIILFLLKVDGRWYFEEIRIS” has a protease stability score of 2.09.
Sequence “DEEEHSYEWAHKVSRHTTETGNEDLSRELADPNVRVIIGDKEYHGWKFMTHLLAHLRIKHIIIRSIRVQGNKLDLNEEVHGEIDGKDETFKLDLVILKVNGRWVIKSVRVE” has a protease stability score of 0.612.
Sequence “DEERKIVEKWANEFLQAQITGDEDWFREYADPTTRYNLHIGDYDLHLHGRELVLTFLHEILRKFKNIKIEIKRRNIQGEKTDIDGVENYNGVEHRVRIHLVVINGQLKSYTIKEH” has a protease stability score of 0.604.
“VEDLQLAEHVTRLLLHLVHTGDFDVMKELLDPNVRIHVDGQDYHGRDVWKHILDRFDYISVHHSEVKENDVQGNKVNIRVHTDVIFEYGDKRLRQRYDVVVIAQKINGRWIIELFSVR” gave a protease stability score of 1.22.
“SEMEETAKTVYKRWFDMLHTGDEELLTRFMDPHVRVQQGDKEIVGWELVVTHNRHLRYEDSHLKDIETQGDKVIIRGELVLTIGDKRFTIDVEILAQKVDGRWILKSVRFS” showed a protease stability score of 0.035.
In the case of “DEHHRWLEQALHLWIHTILTGDEKVLHELFDPDVRLNVDGQDFHGRELMIKWFHDILRKFKNIRIKHIHIEDRRYYDGRLEIHTSVNVEFNGRPHEEKYRIIAFKIDGRWRLKEEEFH”, the protease stability score is reported as 1.8.
Sequence “DHEDDEFDFAIELWVTIMKTGDEEFLERYVDPHARLIVGDKRFHGREVIEFMLRRIDVLDRIEVEHRQSVNGRMIIHQHLHHAIDGRRNEVRMRVVVHKVDGRWDLDELQFD” has a protease stability score of 1.36.
Work on “DEEEEYYRVAIEIWLRVMMTGDPKYFDRLADPHVRVEQGDKRLHGMEDWSKRLEHMRIDHINIHQFKVVNGKIHVDTEVRGDVDGVEFRTRMELIFEKVDGRWILRRIHIN” yielded a protease stability score of 2.71.
“DETREESYEFLWKLIHNWQTGNEDRLDELIDPHVRLVVGDKNHHGREELIELIREILERADHLRMRMRHFRVQGDKAEVDTRLQMEIGDKSIDTETHVRIIVVDGRVKYLEYEIK” gave a protease stability score of 0.459.
For “SESEEEARKVIERLFRAERTGDEDDVKHLLDPNVKIDWNGRKYHGRDDWAHYISHLGIDHSELIIKHLEYQGDKLRLHGILRYVIGDKTIEEEVFEHMQKINGRWRIREIHIK”, the protease stability score was 1.64.
In the case of “HEEEEEIKEATRLFEEIHRTGDERESREMIDPNALFEVGNFKDHGWDSIHVLMRRVKNVKITLDDFKIQGDKVHLHITENFNGKRVHVTIIAVKINGVWFVHKIRYD”, the protease stability score is reported as 1.44.
“TENKRDLDLLIKLHLYLHKTGDWERLFKLMDPHARLEVGDFHIHGREEVIRWFVELMERVKNMRFDLQDRKVEVQGEKVIVRSDVEVNIDGVVIRVYLEVDSIKVDGKWHLHSERIELR” gave a protease stability score of 1.29.
In the case of “SEHHEKLLHLTTLFLEAFWTGDEDIFHHLLDPNVKSIFNGREIHGRHIFSDLRRQIRVERTHVEHEQIVDGRVFMHGKSDGHINGRTHKSHLEIEIVVFDGKVERIKIELR”, the protease stability score is reported as 0.499.
In the case of “DKEEVEKIAREALEAAVKGDEDKLKTYLGPDVKYVLGDQEYQGQQVAELVMKLIKKDGARLQLETLKVEGNTVQAQYQFHVDGVTRKAHITMKVKGGRVDEWQVHIDDHAKEALKKG”, the protease stability score is reported as 1.89.
For “TEMEEEIRDSIELLDRAINTGDEEKLRRLFDPNTRREVGDKQHHGRELLIRQIVELGAEHHIHVDHWRLQGDKAVIDGTLNYEFNGREYRTRTTLHLVKINGRWLMHSIHLH”, the protease stability score was 1.08.
In the case of “SEKEEHLHELTRLLVEWFITGDEEDNLEQADPHVRMILIVDGRIIERHGREKLYEEAHRHLKRLGIDHYRIKHVDIQGEKVKINGQLEFNGVIYDARLTFVVINGKLHQEYRSEE”, the protease stability score is reported as 1.64.
In the case of “DDDAIKRFHEQVDNEQHNNEEEQEKNVDPNATVNVGDKTYHGREKWREVVKRENEEMRVKYQHVTFRRHPGRVIVRFRIVNDHNGKPTETDVNANYQMHNGRIRQVNRRTDG”, the protease stability score is reported as 0.225.
In the case of “SEEERDARIAIEIMLRLLHTGDEESMHQLADPDVRSDVGDKELHGWKLFVDVITEMGIDHVELEHLHTQGDKVHIHVRSFFNGREYLVNLHVRKVDGKWYVEEMKISHH”, the protease stability score is reported as 2.45.
For “DELEHLERQLAEEILEDFMTGNEENFDHLADPNVKHDINGVEIIGREHYVEWWRRIKNVKIELKRYHIIGDKATIDGHEVFEGRRHKMILELDIVNGQIKRVRFELR”, the protease stability score was 0.986.
Sequence “SEDHRDAEKFLRLFMELFKTGDFEELFRLVDPNVRLEINGREFHGRELVKKLLKEEHDRYKNATSEVEIDRIHIQGDWVHADIELRLDYNGKTLRWETHLVMLKVDGRWFVRSYSER” has a protease stability score of 2.6.
“SHDEDRLREMIERWVEFMITGDEDRLRELADPNMRIHVNGKDLHGREEYARWINELGVKHIEITHVDLQGDKIDIVTELRFDGRTHDIHIKARKIDGRWHLTEFREE” gave a protease stability score of 1.34.
Sequence “HENEENETEAIRLFLRVMLTGDEHDLKRMFDPDMKVEIGDKRIVGRERVLEHWLHTAERFGLTNIYLQLDHVRVINGRVDIDFHVRFNGRTERVHLHILKINGKWIVEHLEVR” has a protease stability score of 1.36.
“DEEKKDVHKIWELFVEHYYTGDEEFLHRMADPNVRSDVNGKELHGRESLLSLMREWIDRADVIQHIDVEDRRIQGDKAYIRTRFVGLVNGKPVSTDVTIILSKVNGQWFMHRIVIK” gave a protease stability score of 1.61.
With “TERDEHSRKMAHALVENFRTGDFETLHDLFDPRYLVILYIDGVDIRLHGREDFLRELKLINDRLGVDRVNLSVKHMEIQGDKVIMHFEEHQGDKTRRSEIRLEIINGRLRTSEWWIH” the protease stability score was 0.788.
Sequence “SEHEEDFKKATHEILEIWETGDEHRMSEYLDPNTRLSIDGKNIHGREKVEEILRRHWERLGIDHLRIKDLRVHTIDGRMHLDILVRFHYNGVTIDVHLHFNLIKIDGKWYIRSILEIDR” has a protease stability score of 0.418.
In the case of “DEWTHVLHEMLKLLLDAWDTGDEKVLHRMMDPNAKSEINGREFVGMHHISTWLKRERDRLGVEIHIHVRRINFQGDKLEVDSHFNVIIGDKEFHRSTRIELIIVNGRVHSLHIKID”, the protease stability score is reported as 0.212.
For “DEREKEAKTLHQEWFRALQTGNEKRLHELLDPHVRSDVNGVKLHGRHALIKFLVKWLRQIDHNERLEIHDIRFQGDKSEEDVRVVVHIDGRRIDYETHVHLDIYDGVIREVEIDIK”, the protease stability score was 1.18.
For “SEEEEYVTKYTRHWLHSHVTGDEDYLRRYADPHVRVDINGREVHGRDEAAHFIERVLRHIREEHLDDRDFTVINGKSILHGELKISINGQEWRVNFDIIIVVVNGRFKREEVRVK”, the protease stability score was 0.858.
In the case of “DEHHKHVKEMLDLWRRNMETGDWDEIHKLADPHVRMIIFVGDKEIHSHGREEVHRVLEEWIRRMGVDHLVLHDVTLQGNKIIIDTQRNFDGRYLDTSEIIIVVNGRIKEVTFEEK”, the protease stability score is reported as 0.341.
With “DHHRKETEELAELFFENLLTGNWEIHEHLLDPDVKLEQGDKINVGRESYSEWLEYVKKHIRIRDWKIRHVHVFNGRVHLETEVHMEYGDKHHVVDMHISIDVINGRFKTVRIEIK” the protease stability score was 2.1.
In the case of “SELHEDAEEIAKQFSRAWTTGDFEELDKLFDPNARIEYGDYEVHGRHIVSKFLRQIRIKEVRFIVRRVEHYDGRIRLWGELTLHGNINGRDFDLHTKSDLLVIKIDGRWVVEQYIIR”, the protease stability score is reported as 1.47.
With “DELHEDAEKAWRYRLEILRTGDPDSILELMDPDVRIEQGDKKFHGRELTEKFMKWLMDHARYEFFHLKDMRTYGNKVETDGYVVGNVDGQEHIVHVHVYSLKVNGRWTIKSIEIK” the protease stability score was 1.37.
Sequence “SDDEHAAHLIIFIWTFALITGDEQTLKELLDPNVKNEFNGVELHGREQVEEHVRRYDWVTDFKFRVDDIQHQGEKIILDGTLVITMEFDGRREDIKSRFILIVRKVDGKWHLERLIIV” has a protease stability score of 1.86.
Work on “DHEEEIAQKAFTDWHHALLTGDWERHEEMFDPDVREDINGVDLHGRELIVKQVRRDLQDFGIKHFEIRIRRLSFQGNKVIFDGIIIFHVDGREERFHVRVLFRKINGVWYLHSRFLH” yielded a protease stability score of 1.06.
“SEEEELNQKLLEEIIQILITGDWRALLELADPNVRSEVNGVELHGMETHARHLLEMLEKYPNIQVRIHHLEVQGEKIIIHGTIHFNGRDLRLTLVWHVVNGRWKEVRSELR” gave a protease stability score of 1.35.
With “SEEEKLAHEYVRHIIELLETGDEQNVQDLMDPNARSVMIIDGREIYTHGRDAFSHLLKLMGFDHSRLKDIKIYDGRVHSHIEVSVNGREVEVHLIVRKVDGRWVLQETRFHLH” the protease stability score was 1.19.
